Key:
DYRK1A = DYRK1A (UniProt Q13627); experiment: immunofluorescence co-localisation, confocal overlap index
TGF-β receptor 1 = TGF-β receptor 1 (UniProt P36897); experiment: co-immunoprecipitation, western blot; conditions: reference: wild type Hsp90ab1; sites S225,S254

Hsp90ab1 (from UniProt P08238) S225A S254A Hsp90ab1
other: average overlap index (DYRK1A; reference: wild type Hsp90ab1, sites S225,S254): weaker; reference 0.5378
binding against the reference (TGF-β receptor 1): weaker

β-catenin (from UniProt P35222) T551A S552A β-catenin
other: average overlap index (DYRK1A; reference: wild type β-catenin, sites T551,S552): weaker; reference 0.8419
